Where two headings read alike, the source gives them in different places. One block for each molecule: values may come before it.
Assays:
Experiment in all cases: cell-based or functional assay
[1] = target: HA/V5 double tagged endogenous human FPRL2 (human)
[2] = target: HA/V5 double-tagged endogenous human FPR (human) (UniProt P21462)
[3] = target: HA/V5 double-tagged endogenous human FPRL1 (human) (UniProt P25090)
[4] = target: T1, HA/V5 double tagged endogenous human FPRL2 (human)
T1 chain: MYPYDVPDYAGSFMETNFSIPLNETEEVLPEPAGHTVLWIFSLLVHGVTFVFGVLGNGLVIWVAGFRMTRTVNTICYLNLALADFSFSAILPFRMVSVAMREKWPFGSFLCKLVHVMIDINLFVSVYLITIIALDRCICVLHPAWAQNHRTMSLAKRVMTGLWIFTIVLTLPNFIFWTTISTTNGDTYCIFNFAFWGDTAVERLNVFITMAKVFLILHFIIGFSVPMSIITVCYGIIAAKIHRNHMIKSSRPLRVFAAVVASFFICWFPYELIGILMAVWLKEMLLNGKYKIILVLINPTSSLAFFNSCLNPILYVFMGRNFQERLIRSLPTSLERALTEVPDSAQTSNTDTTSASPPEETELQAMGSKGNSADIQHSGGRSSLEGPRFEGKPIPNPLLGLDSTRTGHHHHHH

HA/V5 double-tagged endogenous human FPRL1 (human), sequence (P25090 other isoform, or with tags, fused parts or gaps): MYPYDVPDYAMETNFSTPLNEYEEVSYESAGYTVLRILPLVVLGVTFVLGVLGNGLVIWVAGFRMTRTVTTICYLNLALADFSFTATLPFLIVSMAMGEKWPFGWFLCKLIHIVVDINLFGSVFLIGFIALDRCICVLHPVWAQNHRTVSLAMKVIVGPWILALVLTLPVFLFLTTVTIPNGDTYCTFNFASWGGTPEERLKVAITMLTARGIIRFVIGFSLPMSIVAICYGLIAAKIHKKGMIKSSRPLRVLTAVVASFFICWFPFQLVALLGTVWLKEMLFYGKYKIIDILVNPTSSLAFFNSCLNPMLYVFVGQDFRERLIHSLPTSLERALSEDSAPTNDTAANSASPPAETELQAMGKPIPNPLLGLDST
HA/V5 double-tagged endogenous human FPR (human), sequence (P21462 other isoform, or with tags, fused parts or gaps): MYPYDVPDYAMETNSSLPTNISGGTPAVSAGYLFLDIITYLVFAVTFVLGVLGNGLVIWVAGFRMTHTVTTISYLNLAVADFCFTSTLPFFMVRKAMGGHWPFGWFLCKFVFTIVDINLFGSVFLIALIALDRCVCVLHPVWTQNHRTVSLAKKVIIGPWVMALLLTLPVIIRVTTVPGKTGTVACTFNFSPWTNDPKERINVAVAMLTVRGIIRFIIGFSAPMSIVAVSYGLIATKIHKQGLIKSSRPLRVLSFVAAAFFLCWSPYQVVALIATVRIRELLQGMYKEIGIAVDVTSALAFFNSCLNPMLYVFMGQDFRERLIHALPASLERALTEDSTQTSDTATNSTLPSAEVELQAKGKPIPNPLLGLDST

EC50, [35S]GTPγS binding to membranes of transiently transfected CHO cells [1]: 72 nM
[35S]GTPγS binding to membranes of transiently transfected CHO cells; highest dose without significant activity [2]: > 10 µM
EC50, [35S]GTPγS binding to membranes of transiently transfected CHO cells [3]: 1500 nM
Molecule: [Gly14]-Humanin (peptide)

EC50, [35S]GTPγS binding to membranes of transiently transfected CHO cells [4]: ~320 nM
EC50 of Humanin driven pigment aggregation in melanophore (Gi coupling) [4]: ~239 nM
B1: Humanin (peptide)
peptide: MAPRGFSCLLLLTSEIDLPVKRRA

Source: patent US20080125491A1 (ARENA PHARMACEUTICALS, published 2008)
